Measured values from the array DNA melting data of Ke et al..

Assay: melting temperature; UV melt of duplexes

Row | Substance | Tm (sodium 0.07 M, strand 2 µM) [°C] | Tm (sodium 0.12 M, strand 2 µM) [°C] | Tm (sodium 0.22 M, strand 2 µM) [°C] | Tm (sodium 0.62 M, strand 2 µM) [°C] | Tm (sodium 1.02 M, strand 2 µM) [°C] | also measured
1 | AAAAAAAAAGCTTTTTTTTT+AAAAAAAAAGCTTTTTTTTT ((((((((((((((((((((+)))))))))))))))))))) | – | – | – | – | – | Tm (sodium 0.12 M, strand 5 µM): 51 °C
2 | AAAAAAAAGAATTCTTTTTTTT+AAAAAAAAGAATTCTTTTTTTT ((((((((((((((((((((((+)))))))))))))))))))))) | – | – | – | – | – | Tm (sodium 0.12 M, strand 6 µM): 49.9 °C
3 | AAAAAAAGCTTTTTTT+AAAAAAAGCTTTTTTT ((((((((((((((((+)))))))))))))))) | – | – | – | – | – | Tm (sodium 0.12 M, strand 5 µM): 44 °C
4 | AAAGTACATCAACATAGAGAATTGCATTTC+GAAATGCAATTCTCTATGTTGATGTACTTT ((((((((((((((((((((((((((((((+)))))))))))))))))))))))))))))) | 58.3 | 61.9 | 66.1 | 71.3 | 73.2 | –
5 | AACCTGCAACATGGAGTTTTTGTCTCATGC+GCATGAGACAAAAACTCCATGTTGCAGGTT ((((((((((((((((((((((((((((((+)))))))))))))))))))))))))))))) | 64.5 | 68.3 | 72.5 | 77.7 | 78.7 | –
6 | AACGCGCGTAGAGTAATTATAA+TTATAATTACTCTACGCGCGTT ((((((((((((((((((((((+)))))))))))))))))))))) | – | – | – | – | – | Tm (sodium 0.12 M, strand 6 µM): 65 °C
7 | AACGCGCGTGAATTCTGGCCGCAA+TTGCGGCCAGAATTCACGCGCGTT ((((((((((((((((((((((((+)))))))))))))))))))))))) | – | – | – | – | – | Tm (sodium 0.12 M, strand 6 µM): 75.8 °C
8 | AACGTGAATTCTGGCA+TGCCAGAATTCACGTT ((((((((((((((((+)))))))))))))))) | – | – | – | – | – | Tm (sodium 0.12 M, strand 7.4 µM): 58.3 °C
9 | AAGGCGAGTCAGGCTCAGTG+CACTGAGCCTGACTCGCCTT ((((((((((((((((((((+)))))))))))))))))))) | 64.5 | 67.7 | 71.4 | 75.1 | 76.3 | –
10 | AATATATATAGAGTGCGCGCAA+TTGCGCGCACTCTATATATATT ((((((((((((((((((((((+)))))))))))))))))))))) | – | – | – | – | – | Tm (sodium 0.12 M, strand 3.3 µM): 64.1 °C
11 | AATATATGAATTCTAATTAA+TTAATTAGAATTCATATATT ((((((((((((((((((((+)))))))))))))))))))) | – | – | – | – | – | Tm (sodium 0.12 M, strand 6 µM): 44.7 °C
12 | AATATATGATCATCGAT+ATCGATGATCATATATT (((((((((((((((((+))))))))))))))))) | – | – | – | – | – | Tm (sodium 0.12 M, strand 3 µM): 50 °C
13 | AATATCTCTCATGCGCCAAGCTACA+TGTAGCTTGGCGCATGAGAGATATT (((((((((((((((((((((((((+))))))))))))))))))))))))) | 62.1 | 65.7 | 70.3 | 75.1 | 76.5 | –
14 | ACAGCGAATGGACCTACGTGGCCTT+AAGGCCACGTAGGTCCATTCGCTGT (((((((((((((((((((((((((+))))))))))))))))))))))))) | 68.1 | 72.1 | 76 | 79.4 | 81 | –
15 | ACCGACGACGCTGATCCGAT+ATCGGATCAGCGTCGTCGGT ((((((((((((((((((((+)))))))))))))))))))) | 66 | 69.1 | 72.6 | 76.8 | 77.3 | –
16 | ACGGGTCCCCGCACCGCACCGCCAG+CTGGCGGTGCGGTGCGGGGACCCGT (((((((((((((((((((((((((+))))))))))))))))))))))))) | 76.8 | 79.9 | 84 | 87.1 | 88.3 | –
17 | ACTGATTAGGATCCATATGTCA+TGACATATGGATCCTAATCAGT ((((((((((((((((((((((+)))))))))))))))))))))) | – | – | – | – | – | Tm (sodium 0.12 M, strand 5 µM): 58.3 °C
18 | AGAAGGGAGAGAAAAAGAAA+TTTCTTTTTCTCTCCCTTCT ((((((((((((((((((((+)))))))))))))))))))) | – | – | – | – | – | Tm (sodium 1 M, strand 2 µM): 61.9 °C
